Measurements: a protein production outcome set (Wang et al. 2014)

Experiment: label from the status in PepcDB records
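Note: failed if final PepcDB status was selected cloned or expressed and not failed if soluble or beyond.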

MHFRDTSERQSDAVNESSLDSVHLQMIKGMLYQQRQDFSSQDSVSRKKVLSLNLKQTSKTEEIKNVLGGSTCYNYSVKDLQEISGSELCFPSGQKIKSAYLPQRQIHIPAVFQSPAHYKQTFTSCLIEHLNILLFGLAQNLQKALSKVDISFYTSLKGEKLKNAENNVPSCHHSQPAKLVMVKKEGPNKGRLFYTCDGPKADRCKFFKWLEDVTPGYSTQEGARPGMVLSDIKSIGLYLRSQKIPLYEECQLLVRKGFDFQRKQYGKLKKFTTVNPEFYNEPKTKLYLKLSRKERSSAYSKNDLWVVSKTLDFELDTFIACSAFFGPSSINEIEILPLKGYFPSNWPTNMVVHALLVCNASTELTTLKNIQDYFNPATLPLTQYLLTTSSPTIVSNKRVSKRKFIPPAFTNVSTKFELLSLGATLKLASELIQVHKLNKDQATALIQIAQMMASHESIEEVKELQTHTFPITIIHGVFGAGKSYLLAVVILFFVQLFEKSEAPTIGNARPWKLLISSSTNVAVDRVLLGLLSLGFENFIRVGSVRKIAKPILPYSLHAGSENESEQLKELHALMKEDLTPTERVYVRKSIEQHKLGTNRTLLKQVRVVGVTCAACPFPCMNDLKFPVVVLDECSQITEPASLLPIARFECEKLILVGDPKQLPPTIQGSDAAHENGLEQTLFDRLCLMGHKPILLRTQYRCHPAISAIANDLFYKGALMNGVTEIERSPLLEWLPTLCFYNVKGLEQIERDNSFHNVAEATFTLKLIQSLIASGIAGSMIGVITLYKSQMYKLCHLLSAVDFHHPDIKTVQVSTVDAFQGAEKEIIILSCVRTRQVGFIDSEKRMNVALTRGKRHLLIVGNLACLRKNQLWGRVIQHCEGREDGLQHANQYEPQLNHLLKDYFEKQVEEKQKKKSEKEKSKDKSHS
protein production: failed

MAKSSVANIFTFSNLSCGLLSLIMTLAASSTNNEYYKLACLFILIAGIIDRYDGRVARALNVSSELGKELDSLADLVSFGVAPSILAYHLCNFSSNFNFLGYIFVLIFPIAGAYRLARYNLSTFDGVFRGIPITLAGMFMALYSLIYLLLNTQPNAVLTIVIMLILSYLMVSNLKLKKL
protein production: not failed

SRPLGEVYLDSSKPAVYNYPEGAAYEFNAAAAANAQVYGQTGLPYGPGSEAAAFGSNGLGGFPPLNSVSPSPLMLLHPPPQLSPFLQPHGQQVPYYLENEPSGYTVREAGPPAFYRPNSDNRRQG
protein production: not failed

MESDRNLNYINLFMIFVNLIIIVFTSEIMTITLYKISSEFMARDFLDQITVIPWKPQNITIVSIGAYIILIILITVKKKYAKFLNKWEIAALLLCEIFFSVAIMTALNMSYNGIILFIIADLVTNTKDKSNKIIFLILMIIIYIFSVYDFISLKIKMVSFENFLYYYTANRRSYLMELKSILNSINIIVFILYMIVFIQVQMRENEKITSLNKKLNLANEKLEVMNVQLKEYAVKIGSMAETRERNRMAREIHDTLGHALTGISVGIDACLTTIDVSKELTKKQLNIIADVAREAIKDVRRSVKKLRPDALENSSLQDALNNMISRISKATKTKVFLNANIKLLKFGHDEEDTIYRIIQEGITNSIRHGQAEEIYIDMIRRDKQLNITIRDNGKGCANVEEGFGLRHIEERVKLLNGTVEYDGSDSFLITVNIPIRWGDGS
protein production: failed

MPQIQSSHSNHFDFTIDTADRTKLLMSYLVVPTTANFNNVMHGGELLNLLDKVAYVCSTRYCAKGTVTLSVDGVTFKYPIPVGNLLTFLASINYVGNTSCEVGIKVLSEDIKTREITHTNSCYFTMVAVENGKPTPMPKYEPKTEVEIRRYEGALKRKEMRTRGYLKSGKHEGV
protein production: failed

MNPGAYAVPSSAQGWTGTESIGKSSAVNHHRDDGGQEMAGALRKMAVYLGLVEDDRYDHRYADEYDDFEDFDEPLDERPSRNRSPRDDSRNNAVTDSSDHSPSRNERRSPAPAPATADLARITTLHPRTYNEARTIGEHFREGIPVIMNLTEMVDSDAKRLVDFAAGLIFGLHGSIERVTNKVFLLSPANVEVTAEDKARIAERGFFNQS
protein production: failed

MSEILVLNCGSSSVKFALINPHTSQSLVTGLAENIATKNCKVVFKAEHKIVKYLENGSYKDVFEMLKDFLVENKHLEKIVAIGHRVVHGGQYFSKSVLINADSLEKIKACIALAPLHNPAHIEGIRFCQQIFPELPQVAVFDTAFHQTMPSYIAEYAIPYELTHKHNIRKYGAHGTSHKYVSEQAAKILTQQKANVIVAHLGNGCSITAVVDGKSIDTSMGLTPLDGLVMGTRSGCIDPSIFAYISDNLGWSVTEITNMLNKQSGLLGICGHNDMREVSQLAAKGDSLAKLAIEIFSHRVAKFVASYMIYFNKLDALVFTGGIGENAANIRKNIISKLANLGFMIDHQKNSNSETFINSKNSHNIMVIATNEELMIAQETQNLI
protein production: not failed

MDIEDLQTFVAVADAGGVSAAARRLGISKSIVSRRLLRVEAELGVQLLARTTRGAALTEAGITFRDHAARASAEIDTAKETILPTGELRGRLRVAMPLTFGPTHFAPVLADMARQHPQLHIHTSYSDRFVDLIAEGFDCAIRGAYLQDSNLIAKRVGPIHGKLVASPDYIKAHGSPGTLDELVTHQALMQGTEAWQFMDGDKIVTVQPQGRFKADSATALAAAAAAGLGIAWLPDCITYGYVASGALVPIMTRYPVPPGAAYVVRPPGQHPTRKVRALTEMLTEYFKRNPDVWGLDR
protein production: failed

EQLTLRHGTRADISEIAPLLARNAADPCELVDLEHALDLLTHESSHFLAVVRNARGKIIAAMQLTIVPEFSRGGALHLHIEGPFIIPEYRTTDLDKKLRAWAVEHGRARGVKVEEVVG
protein production: failed

MRVHPDRGRTNLPPFKLRSSRSTYKALKEKANGDALTNAGDRSIFVPDGICQGKAAERCQKTRQRGVRSVKNLIVKIAAAALLVLAPAIAQAAEGYSTANVNMRAGPSTRYPAVAVIPAGSSVEIRGCLSNVNWCDVEFYGGRGWVSGQYVQAVYEQRRVYVGPQYYRPLGIPMVTFSVGNYWDRYYRGRDFYRERDRWSRGPDYYYRDRDYRDRDYRREYRDRDYQVREYRDRDRDRRDDARREERRREVRRDDDNRSSDFRDLPQFRGGKADTYNHPDPRASPFVCRPGDPSCGD
protein production: failed

MKKGYMYIALTTIIFSTMEIALKLVSKSFNPIQLNFTRFFIGGLFLVPFALNTLHKRHLSISTKDLRFFALLGLLGTVISMSLYQLAVQNTKASVVAVLFSCNPVFVTILAFFLLREAIHKNNIAALILEVIGTIVIIDPLNTKLSILGLALTIASTLIFAAYGVFGKKKCAKYGGIVVTCFGFLFGSIEMLVLIGITHITPIANLFSSNGIAIFSNIPLFTGYSLKNLPLMCFICLINTGAGFACYFKAMEETSAQTTSLVFFFKPILAPILALILLHEIIPVNMIIGILFILAGSISSILPELLAQRQTKLEKTA
protein production: failed

KYPFLREAGSSFKDRDVTKMSDLIATWDGQDIKGPALIGVPLSKSSISHSGASFAPGTIRQALKHSSAYSAELGEHVVSELLYDLGDIDIHVTDIVKSHHHIFQTMHALLSDHPDWVPLILGGDNSISYSTIKAIAQTKGTTAVIQFDAHHDVRNTEDGGPTNGTPFRRLLDEEIIEGQHLIQLGIREFSNSQAYEAYAKKHNVNIHTMDMIREKGLIPTIKEILPVVQDKTDFIFISVDMDVLDQSHAPGCPAIGPGGLYTDELLEAVKYIAQQPNVAGIEIVEVDPTLDFRDMTSRAAAHVLLHALK
protein production: failed

MGMLTDVALKALKPKEKIYKIADRDGIYVRVMPSGAISFRLDYRLNGRRETIYLGRYGRDGISLALAREKCLDAKRAIGEGRSPAIEKQRDKRRLKEAKSFGEFGEKWLTAAPMADSTRAMRRAIFERELLPVWRNRLLTEITPDDLRTHCGAIVERGAPATAIHVRDILKQIYGFAILHGEKVANPADEVGPASIATFVPKDRSLSPSEIRVMLKQLEHVATIPTIRLGMRLYLLTMVRKSELQDAVWDEVDFENAVWTIPKERMKRSKAHNVYLSRQALDIMIALKTCAGNSRYLLPSRYDADAPMSRATFNRITYAVVERAKANGLPLEPFTVHDLRRTGSTLLNELGFNSDWIEKCLAHEDGRSSRGVYNKAEYEVQRRHMMQEWSDIVDAWVGGKKHVPTLIPPSMPILAPDPAL
protein production: failed

MDYTASYYTDEELAKLFKAAKGDPLELPIVLAAYYGLRRSEIIGLRWDAIDFNPDDPKITIQFTVTEVNFGDGQGNVIIEKEGTKSKASKRTLPLVKPIADLLLQKKKDIENNRRLCGSCYNDKYLDFVHVNEIGERMKPNYISQHFALLLEKHGLKKIRFHDLRHSCASLLYANGVSLKQIQEWLGHSDISTTANIYTHLDYNSKIATANAILPVLFDQLEHHHHHH
protein production: failed

MLERIANIQKKLSKSIVERKINEVRKVAAVDVSYKEEKARAALVITTFPEGEVLKTKVIETTVSFPYIPTFFFLRETKPILIATKGETFDVLIVEGHGKAHPRGYGLASHIGVVLRKPTIGVAKRLLKNTPKDTYKKVGKVYVSVGNLITLEDATKIIRAILDESGYPKPLKLADKLSKGRIYEVKNTPSPNRSRKKRGNRGKDNNNSQGNLEHHHHHH
protein production: failed

MAEVLVYVDHVDGAVRKPTLELLTLARRIGEPVALALGSGAENTAAALAEHGAGKVLTHDAAEYADYLVVPKVDALQAAYEAVSPAAVLIPSSAEGKEIAARLAVRIGSGIITDAVDLEAGDEGPVATQSAFAASFTTKSRVSKGTPVITVKPNSAPVEAAPAAGAVEALSVSFSDKATGTKVTGRTPRESTGRPELTEAAIVVSGGRGVNGAENFAIIEALADSLGAAVGASRAAVDAGWYPHSNQVGQTGKAVSPQLYIASGISGAIQHRAGMQTSKTIVAINKDAEAPIFDLVDYGVVGDLFDVVPQLTDEVKTRKG
protein production: failed

MGNIGSPPKFDEYPNGNEEPRRVLRLNVYFDNPVQNKDGAYDDRGGFWAPVDWWHRDAERWATLFAKGMRVAVRGHLERDDWTDGDGEPHTTYKVDARSVGILPYRLDAVHLSPLEHHHHHH
protein production: failed

MTILENIRGPRDLKALSEAELGELSDEIRDFLVHAVARTGGHLGPNLGVVELTVALHRVFESPDDRILWDTGHQSYVHKLLTGRQDFSKLRSKGGLSGYPSREESAHDVIENSHASTVLGWADGLAKARQVQGERSHVVAVIGDGALTGGMAWEALNNIAAARDRPLIIVVNDNERSYAPTIGGLANHLATLRTTDGYERALAWGKDVLQRTPVVGHTVYEALHGAKKGFKDAFAPQGLFEDLGLKYLGPIDGHDIGAVESALRRAKRFHGPVLVHCLTEKGRGYEPALRDEEDHFHTVGVMDPLTCEPLGPAGGPSWTSVFGEEIVRIGEERADVVAITAAMLHPVGLAPFAERFPDRVWDVGIAEQHAAVSAAGLATGGLHPVVAVYATFLNRAFDQLLMDVALHRCGVTFVLDRAGVTGVDGASHNGMWDMSVLQVVPGLRIAAPRDADQLRTQLREAVAVDDAPTLLRFPKESVGPAVPAVDRIGGLDVLHTADRSEVLLVAVGVMAPVCLGAAELLEARGIGCTVVDPRWVKPVDPALAPLAARHRLVAVVEDNSRAAGVGSAVALALGDAEVDVPVRRFGIPEQFLAHAKRAEVLADIGLTPVDVAGRIAASLALAEPAGDRAGGPAVEQPGDGRMSGDGRIVMPAQGEN
protein production: failed

MSRVSLPHDAKAGPTKPEVRAVLASKLALTGSDHFAEVGSCTGAVTITAARRAGRVTALERKGNRLDVTRKNLAANDVDADVELREAEAPEGLPDDADVLFLGGSRNYEAILDHAVETGVDRIVMNVSRLEVAGAATEAFRERDILEEVVQFQVSHGYELAGATSFNSENPVYMLVGSASEDVAADGGSPTETEATDGGQR
protein production: failed

MEKANIGFKAGIIFEKLGETGLITIAELARRLNFAADETALAAGWLARENKIYIERRNGLLYIRKELEHHHHHH
protein production: failed

SSSKGISNALKDLVEDFERELGRMLSPFELEDLQKTVSDDKTDPDLVRSALREAVFNGKTNWNYIQAILRNWRHEGI
protein production: failed

MALQLATLCFVSFSALFFVVDPFSAVPFFLALTRNDDPRRRREIALRASVTAFAVLAAFALTGEWIFRLLGIGLPAFKVAGGVVLLLLALDMVRTQPSRTRITQGEVDASADKEDVAIVPLAMPLLAGPGSIATAIVLMVRARGEDWWHPLPVLLAIALTCLASYLILAGAARTEKVLGRTGLAILERVAGLLLVAIAVQFMMDGLAEGLPRAFPLR
protein production: failed
